Experimental data taken from the supplement of paper PMC9170038.

Columns and labels:
MS2 coat protein [1] = test: apparent KD of MS2 coat protein, switch OFF state (with FMN for OFF switches, without FMN for ON switches); designed switch direction (-1 OFF switch, 1 ON switch): 1; higher = weaker reporter binding; conditions: FMN input: 0 or 200 uM; Eterna round: R93 (includes R88 designs)
Method in brief: (§1)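 Apparent KD per design is the median of normalised cluster binding-curve fits. Designed RNA switches transcribed on-chip from Illumina sequencing clusters were titrated with SNAP-549-labelled MS2 coat protein in twofold steps from 0.7 or 1.5 nM to 3 µM, with 0.8–1.5 h down to 10–20 min per step. Buffer: 100 mM Tris-HCl pH 7.5, 80 mM KCl, 4 mM MgCl2, without or with constant ligand.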

MS2 coat protein [2] = test: apparent KD of MS2 coat protein, switch ON state; designed switch direction (-1 OFF switch, 1 ON switch): 1; higher = weaker reporter binding; conditions: FMN input: 0 or 200 uM; Eterna round: R93 (includes R88 designs)
Method in brief: as §1

Sequence	apparent KD of MS2 coat protein (MS2 coat protein [1]) [nM]	apparent KD of MS2 coat protein (MS2 coat protein [2]) [nM]
AAGAAAGAAACGUAGGAUAUCAAGAAUAUAACAUGAGGAUCACCCAUGUAAAUACGAAAGUAUAAUGAGAAGGAUGGAUGAUCUUC [Mod of Mat of Meechl]	32.8	22.7
ACCCGCAGCCGUCAGGAUAUGUUCGCGUCAACAUGAGGAUCACCCAUGUGUGACAAGAAGUACACGCAGAAGGGAUCAAUGCGGG [Bienri]	16.4	13.7
AACAAUCUAUCUGAGGAUAUGUGUCGAAAGACAUGAGGAUCACCCAUGUGAAAACAUGAAAAGAUACAGAAGGCAGAUAGAUUGA [SS2: 1155]	35.9	26.6
AAAAUAAAAUAAAAGGAUAUAAAAAUAUAUACAUGAGGAUCACCCAUGUAUAUAAAAAUAAAAUAAAAGAAGGAAUAAAAAUAAA [SS2 507: MS2 7]	18.9	22.7
AAAAAACAUGAGGAUCACCCAUGUAUAAAAAUGGGAGGAUAUACUAAGACGAAAGUCAUAGUAGAAGGUCUAAAAA [76%, Meechl, 11]	241	137
AAAAGACAUGAGGAUCACCCAUGUCAAGACAUAGGAGGAUAUGUCUUGAAAAAAGACUUGACAGAAGGCCUUUGUC [SS1 - 58]	21.1	16.5
AGGAAACAUGAGGAUCACCCAUGUAAAAAUAACACAGGAUAUGGAAACACGAAAGUGAAACCAGAAGGGUGAAAAG [77%, Mat - Mod of Eli, 16]	26.1	17.8
UAACUACAUGAGGAUCACCCAUGUCUCCAGGGUCAAGGAUAUGGGCGUAGACAAACUACACCAGAAGGUGAUCCAA [Rireenon]	307	156
GAAAAACAUGAGGAUCACCCAUGUAAUACAACGUCAGGAUAUUGAUUUUAUUAUGUAUUGCAAGAAGGGACAAAAG [Mat - Same State 1 - Hyphema mod - D99]	49.4	95.2
GAGGACGUAGGAUAGGAUAUAUGAAUAAUUACAUGAGGAUCACCCAUGUCCAUUUAUAUGGGAACAUAGAAGGGUUGUGGUUAUC [SameState2 Malc#35]	491	446
AAACCACAUGAGGAUCACCCAUGUAAAAAUAUGGAAGGAUAUGCGAAAAGAAACAAAGAAGCAGAAGGUCUAAAAA [75%, Ex sub1, 20]	27.7	15.2
AUAAAAUAAAGUCAGGAUAUCCAUAAUAAAACAUGAGGAUCACCCAUGUUAAAAAAAAGAUCAUGGGAGAAGGGACAAAAUAAAU [SS2 M 33]	57.6	28.6
AAGCAACAUGAGGAUCACCCAUGUAGCAGGGUCAGAGGAUAUUUGAUCUUGGUAAGGGUUAAAGAAGGUUGAUAAA [Ceralete]	91.1	159
AUUCCAAAUAGUCAGGAUAUCAAAAAUAAGACAUGAGGAUCACCCAUGUACUUAGUAAAAGUAAAUGAGAAGGGACAGGGUGUAA [JR_SS002_Sub404]	19.4	12.9
AAAAAGUGAUGGUAGGAUAUUGGAAAAGCCACAUGAGGAUCACCCAUGUCAAAAAACCUAAAAAACAAGAAGGGCUGUUAUAAAAA [Same State 2.2]	24.7	18.6
AAAAAACAUGAGGAUCACCCAUGUAAAAAAAACACAGGAUAUCCCUUUUUAAAAAAAAAAGGAGAAGGGUGAAAAA [Nob's Hobby 6 - Jieux - Same State 1]	28	29.8
AAGAAACAUGAGGAUCACCCAUGUACCCAAAACGGAGGAUAUGGGAAAGAAAGAAAGAAACCAGAAGGCCGAUGAA [Amyrtaeus]	88.8	25.9
AUCAGGAAGAGAGAGGAUAUCCAAAGGAAAACAUGAGGAUCACCCAUGUAAAAGGUAGGAAAUUGGGAGAAGGCUCAAGAGAGAG [salish99-ss2-093]	29.3	26.4
AGAAAACAUGAGGAUCACCCAUGUGACAAUAUGGGAGGAUAUACGAACACGAAAGUCGAAGUAGAAGGCCUAAAGA [Garnet 53]	75.7	26.3
AACAAUCUAUCUGAGGAUAUGUGUCGAAAGACAUGAGGAUCACCCAUGUAAAAACAUGGGAAGAUACAGAAGGCAGAUAGAUUGA [SS2: 1161]	29.3	203
GAAAAACAUGAGGAUCACCCAUGUGAUAACAUGGGAGGAUAUACAUGGACGAUAGUCAAAGUAGAAGGCCUAAAAG [Garnet 62]	32.1	104
AUGGUCAAGUGUGAGGAUAUCCAGGCUCCCACAUGAGGAUCACCCAUGUUUAUUAGAGCGUAAAGGGAGAAGGUACGAACGCCAU [Esbibiti]	26.9	15.6
